Assay results taken from patent US20190309065A1.

Molecular target: human PD-L1 (human) (UniProt Q9NZQ7)
Assay: cell-based or functional assay

Sequence of UniProt Q9NZQ7 (Q9NZQ7 19-290): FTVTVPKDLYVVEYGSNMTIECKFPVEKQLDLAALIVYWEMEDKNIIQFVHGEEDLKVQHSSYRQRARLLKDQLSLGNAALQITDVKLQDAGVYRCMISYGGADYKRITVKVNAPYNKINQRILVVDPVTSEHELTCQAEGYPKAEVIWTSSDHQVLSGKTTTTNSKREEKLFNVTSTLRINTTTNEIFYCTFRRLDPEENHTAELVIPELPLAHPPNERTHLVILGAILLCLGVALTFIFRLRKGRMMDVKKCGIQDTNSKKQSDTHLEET

B1: monoclonal antibody to human PD-L1, clone 29E.2A3 (mouse IgG2b) (antibody, from another filing, V domains shown)
VH: EVQLQQSGPELVKPGASVKMSCKASGYTFTSYVMHWVKQKPGQGLEWIGYVNPFNDGTKYNEMFKGKATLTSDKSSSTAYMELSSLTSEDSAVYYCARQAWGYPWGQGTLVTVSA
VL: DIVLTQSPASLAVSLGQRATISCRATESVEYYGTSLVQWYQQKPGQPPKLLIYAASSVDSGVPARFSGSGSGTDFSLTIHPVEEDDIAMYFCQQSRRVPYTFGGGTKLEIK
B1 gave a fold increase in B*4201 TL9 tetramer+ CD8 T cells, 6-day CFSE proliferation assay of PBMC with TL9 peptide plus anti-PD-L1 blocking antibody (peptide alone: 4.8-fold) of 10.3 fold and a percentage of B*4201 TL9-specific CD8 T cells after 6-day stimulation with peptide, in the presence of anti-PD-L1 blocking antibody (without it: 5.7%) of 12.4%.
